Experimental findings from paper doi:10.1101/2021.08.16.456439 are described below.

Usually pKd stands for the negative decadic logarithm of the Kd, by convention in mol/L. A lower pKd goes with a high Kd.

One assay concerns the target CyPet-Ubc9 (UniProt P63279). The assay can be described thus: FRET or BRET.
The target of assay [1] is CyPet-NS1 (influenza virus) (UniProt P03496). The assay can be described thus: FRET or BRET. A general note: Bioluminescence resonance energy transfer reports proximity on the nanometre scale.

pKd: −log10 of the molar value.

Chain of UniProt P63279 (P63279 whole entry): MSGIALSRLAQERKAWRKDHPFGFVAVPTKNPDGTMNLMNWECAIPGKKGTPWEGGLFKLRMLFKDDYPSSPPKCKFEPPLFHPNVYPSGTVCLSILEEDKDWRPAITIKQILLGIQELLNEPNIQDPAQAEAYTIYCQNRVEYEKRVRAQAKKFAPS

In turn, “YPet-NS1 (from UniProt P03496 1-230) (natural protein)” showed a pKd in the assay with CyPet-Ubc9 of 5.32. For “YPet-PIAS1 (from UniProt O75925 1-651) (enzyme)”, in assay [1], the pKd is 5.53.
